# The Human Domainome abundance scans (Beltran et al. 2025)
# ± gives the uncertainty stated by the source.
# B1: Zinc finger MYM-type protein 2, residues 463 to 506; numbered along this chain, Q9UBW7 (parent)
# chain: IMNCCEQCGEYLPSKGAGNNVLVIDGQQKRFCCQSCVSEYKQVG
# Variants of: B1
# Assay: abundance fitness (aPCA) (normalised: wild type 0, dead -1); higher = more abundant; growth selection in yeast, the domain comes from the species named
# Details: Homo sapiens
row,Variant,abundance fitness
1,M2W,-0.687 ± 0.18
2,M2L,-0.104 ± 0.093
3,M2Q,-0.141 ± 0.24
4,M2P,-0.376 ± 0.15
5,M2I,-0.145 ± 0.1
6,M2H,-0.25 ± 0.19
7,M2G,-0.148 ± 0.074
8,M2C,-0.286 ± 0.13
9,M2A,-0.162 ± 0.1
10,M2S,0.073 ± 0.087
11,M2E,0.118 ± 0.12
12,M2K,0.124 ± 0.1
13,M2T,-0.059 ± 0.097
14,M2N,-0.009 ± 0.29
15,M2D,-0.049 ± 0.15
16,M2R,-0.179 ± 0.079
17,E10M,-0.656 ± 0.13
18,E10I,-0.66 ± 0.28
19,E10T,-0.751 ± 0.12
20,E10D,-0.197 ± 0.1
21,E10Q,-0.403 ± 0.092
22,E10K,-0.068 ± 0.15
23,E10A,-0.477 ± 0.12
24,E10P,-0.356 ± 0.17

row,Variant,abundance fitness
1,E10S,-0.358 ± 0.14
2,E10H,-0.224 ± 0.27
3,E10V,-0.86 ± 0.1
4,E10W,-0.4 ± 0.13
5,E10N,-0.389 ± 0.14
6,E10L,-1.08 ± 0.15
7,G9T,-0.018 ± 0.099
8,G9R,-0.436 ± 0.076
9,G9V,-0.563 ± 0.083
10,G9K,-0.511 ± 0.11
11,G9Q,-0.067 ± 0.15
12,G9E,-0.495 ± 0.11
13,G9D,-0.671 ± 0.15
14,G9L,-0.289 ± 0.1
15,G9C,-0.148 ± 0.12
16,G9Y,0.102 ± 0.15
17,G9W,-0.442 ± 0.083
18,G9A,-0.17 ± 0.082
19,G9F,-0.001 ± 0.17
20,G9I,-0.417 ± 0.17
21,G9P,-0.68 ± 0.12
22,C8S,-0.337 ± 0.1
23,C8W,-1.41 ± 0.12
24,C8Q,-0.573 ± 0.4

row,Variant,abundance fitness
1,C8R,-0.611 ± 0.089
2,C8Y,-0.311 ± 0.48
3,C8G,-0.391 ± 0.082
4,C8D,-0.77 ± 0.21
5,C8A,-0.505 ± 0.083
6,C8L,-1.05 ± 0.11
7,C8M,-1.1 ± 0.23
8,C8V,-0.712 ± 0.077
9,C8H,-0.233 ± 0.12
10,C8F,-1.18 ± 0.18
11,C8E,-0.307 ± 0.097
12,C8P,-0.775 ± 0.097
13,I1L,-0.246 ± 0.29
14,I1D,0.231 ± 0.19
15,I1N,0.097 ± 0.1
16,I1E,-0.012 ± 0.14
17,I1W,-0.746 ± 0.13
18,I1F,-0.307 ± 0.13
19,I1G,-0.15 ± 0.089
20,I1A,-0.051 ± 0.085
21,I1R,-0.255 ± 0.094
22,I1P,-0.222 ± 0.33
23,I1V,0 ± 0.1
24,I1Y,-0.402 ± 0.21

row,Variant,abundance fitness
1,I1S,-0.172 ± 0.12
2,I1T,-0.162 ± 0.14
3,I1M,0.169 ± 0.22
4,L12G,-0.385 ± 0.068
5,L12C,-0.384 ± 0.11
6,L12D,-0.174 ± 0.11
7,L12K,-0.312 ± 0.093
8,L12E,-0.004 ± 0.077
9,L12A,-0.246 ± 0.091
10,N3V,-0.366 ± 0.1
11,N3A,-0.09 ± 0.073
12,N3S,-0.141 ± 0.079
13,N3E,-0.036 ± 0.087
14,N3F,-0.035 ± 0.34
15,N3G,-0.119 ± 0.076
16,N3H,-0.154 ± 0.1
17,N3Q,-0.232 ± 0.09
18,N3I,-0.237 ± 0.32
19,N3M,-0.194 ± 0.092
20,N3P,-0.345 ± 0.084
21,N3D,-0.045 ± 0.12
22,N3K,-0.231 ± 0.089
23,N3W,-0.402 ± 0.12
24,N3T,-0.249 ± 0.097

row,Variant,abundance fitness
1,N3C,-0.215 ± 0.36
2,Q7D,-0.466 ± 0.12
3,Q7H,-0.076 ± 0.12
4,Q7V,-0.288 ± 0.082
5,Q7C,-0.034 ± 0.14
6,Q7T,-0.139 ± 0.13
7,Q7A,-0.09 ± 0.089
8,Q7W,-0.214 ± 0.091
9,Q7Y,-0.222 ± 0.13
10,Q7K,-0.135 ± 0.26
11,Q7L,-0.226 ± 0.076
12,Q7N,-0.436 ± 0.27
13,Q7R,-0.019 ± 0.08
14,Q7M,-0.152 ± 0.1
15,Q7E,-0.26 ± 0.094
16,Q7G,-0.137 ± 0.073
17,Y11I,-0.145 ± 0.1
18,Y11H,0.298 ± 0.11
19,Y11V,0.117 ± 0.077
20,Y11N,0.28 ± 0.097
21,Y11W,-0.237 ± 0.075
22,Y11F,-0.133 ± 0.087
23,Y11L,0.034 ± 0.1
24,Y11D,0.282 ± 0.11

row,Variant,abundance fitness
1,Y11T,0.319 ± 0.098
2,Y11S,0.252 ± 0.099
3,Y11M,-0.099 ± 0.12
4,Y11E,0.296 ± 0.091
5,Y11P,0.144 ± 0.088
6,Y11G,0.227 ± 0.073
7,Y11C,0.035 ± 0.097
8,Y11R,0.219 ± 0.074
9,Y11Q,0.313 ± 0.11
10,Y11K,0.361 ± 0.13
11,Y11A,0.176 ± 0.092
12,C4S,0.25 ± 0.11
13,C4D,-0.007 ± 0.12
14,C4W,-0.242 ± 0.11
15,C4M,-0.146 ± 0.11
16,C4P,-0.126 ± 0.086
17,C4R,0.012 ± 0.069
18,C4Y,-0.45 ± 0.17
19,C4T,-0.021 ± 0.085
20,C4K,0.125 ± 0.12
21,C4A,-0.147 ± 0.086
22,C4V,-0.029 ± 0.078
23,C4L,-0.09 ± 0.07
24,C4G,-0.089 ± 0.072

row,Variant,abundance fitness
1,C4Q,0.142 ± 0.12
2,C4N,0.214 ± 0.24
3,C4H,0.019 ± 0.18
4,E6Q,-0.116 ± 0.15
5,E6W,-0.375 ± 0.09
6,E6P,-0.253 ± 0.085
7,E6R,-0.369 ± 0.082
8,E6A,-0.197 ± 0.082
9,E6N,-0.241 ± 0.19
10,E6G,-0.184 ± 0.076
11,E6V,-0.256 ± 0.1
12,E6Y,-0.267 ± 0.17
13,E6T,-0.222 ± 0.14
14,E6H,-0.256 ± 0.12
15,E6K,-0.231 ± 0.1
16,E6D,0.071 ± 0.13
17,E6F,-0.229 ± 0.22
18,C5P,-0.854 ± 0.13
19,C5K,-0.38 ± 0.16
20,C5R,-0.697 ± 0.08
21,C5A,-0.65 ± 0.09
22,C5I,-1.08 ± 0.2
23,C5L,-0.922 ± 0.12
